Publication PMC5473807, “Distribution and kinetics of the Kv1.3-blocking peptide HsTX1[R14A] in experimental rats” (Scientific Reports, 2017)
Like-named read-outs stand apart in the source and are kept apart here.

How the values were obtained:
[1] = Stability of the 64Cu complex against EDTA; type: physicochemical; details: 0.1 M aqueous EDTA solution, radio-TLC on iTLC-SA plates
Protocol: The radiolabelling yield and stability of ^64Cu-labelled peptide conjugate were monitored with radio-TLC (thin layer chromatography). Thin layer chromatograms were scanned by using a thin layer analyser (Rita Star, Raytest, Germany). The purity of the radiolabelled peptide was assayed using analytical RP-HPLC. Radio-HPLC was performed on a Knauer Smartline System fitted with an activity detector (Ramona Star, Raytest, Germany) using an Aqua C18 column (Phenomenex, 4.6 mm × 250 mm, 5 µm, 125 Å) with a gradient eluent of H2O + 0.05% TFA (A) and acetonitrile + 0.05% TFA (B); in 20 min 0–60% of B, 10 min 60–95% of B, 1 mL/min.
^64Cu-NOTA-HsTX1[R14A] was prepared by incubating ~1.2–24 nmol (5–100 µg) of NOTA-HsTX1[R14A]/100 µL (1 mg/mL H2O stock solution) with ^64CuCl2 (~35–55 MBq) dissolved in 0.2 mL of 0.1 M 2-(N-morpholino)ethansulfonic acid (MES)/NaOH buffer (pH 6.0) at 37 °C for 30 min. Formation of the ^64Cu^II complex was verified by radio-TLC on iTLC-SA plates (instant TLC medium impregnated with […], Agilent Technology) using H2O + 0.1% HCOOH as mobile phase (^64Cu(HCOO)2, R f = 0.4, ^64Cu-NOTA-peptide, R f = 0). The stability of the ^64Cu^II formed was assessed in the presence of 0.1 M EDTA solution. Radio-TLC was performed with iTLC-SA plates (Agilent Technology) using 0.1 M aqueous EDTA solution [(^64Cu]Cu-NOTA-peptide, R f = 0, ^64Cu-EDTA, R f = 0.9).

[2] = Blood clearance kinetics, arterial blood and PET; type: in vivo; details: whole blood, rat, read-out: blood clearance half-life corrected for the metabolites
Protocol: The procedures are described in detail elsewhere, [34], [35]. Rats were anesthetised using 9% ± 1% desflurane in 30% oxygen and placed on a heat mat. The animals were kept warm under anesthesia until the end of the scan with a total duration of 4 h. The anesthetised animals were localised in a prone position in the axial direction of the scanner. A needle catheter was installed in a lateral tail vein or subcutaneously in the neck for injection using a syringe pump. PET studies were performed with the dedicated small animal PETs NanoPET/CT (Mediso, Budapest, Hungary) and microPET^(R) P4 (Siemens Medical Solutions, Erlangen, Germany). […] Three-dimensional regions of interest (ROI) were determined for subsequent data analysis. The standardised uptake values (SUV, g/mL) and standardised uptake ratios (SUR, as ratio of the SUVs of the tissue of interest and the blood SUV, derived from a region over the caudal arteria abdominalis and vena cava) were used to quantify the activity uptake and kinetics.
The analysis of [^64Cu]Cu-NOTA-HsTX1[R14A] degradation was analysed in one rat after single intravenous injection. […] The samples were again centrifuged (3 min at 14,000 × g), resulting in the precipitate the protein bound fraction (plasma proteins) and the supernatants (e.g. plasma water fraction) were analysed by radio-TLC with RP18 aluminium foil, MeCN/0.1% TFA mixed with H2O/0.1% TFA (v/v 1:1). […]

Which results are given for `CSCC[C@@H]1NC(=O)[C@@H]2CSSC[C@H](NC(=O)[C@H](CO)NC(=O)[C@H](C)NC(=O)COCCOCCNC(=O)CN3CCN(CC(=O)O)CCN(CC(=O)O)CC3)C(=O)N[C@@H](CCCNC(=N)N)C(=O)N[C@@H]([C@@H](C)O)C(=O)N3CCC[C@H]3C(=O)N[C@@H](CCCCN)C(=O)N[C@@H](CC(=O)O)C(=O)N[C@H]3CSSC[C@H](NC(=O)[C@H](CCCCN)NC(=O)[C@H](CCCNC(=N)N)NC(=O)[C@H](CC(N)=O)NC1=O)C(=O)N[C@@H](CCCCN)C(=O)N[C@H]1CSSC[C@H](NC(=O)[C@@H]4CCCN4C(=O)[C@H](CC(=O)O)NC(=O)[C@H](C)NC3=O)C(=O)N[C@@H](C)C(=O)N[C@@H](CCCCN)C(=O)N[C@@H](CCC(=O)O)C(=O)N[C@@H]([C@@H](C)O)C(=O)NCC(=O)N[C@@H](CSSC[C@@H](C(N)=O)NC(=O)[C@H](CCCNC(=N)N)NC(=O)[C@H](CC(N)=O)NC1=O)C(=O)N1CCC[C@H]1C(=O)N[C@@H](Cc1ccc(O)cc1)C(=O)NCC(=O)N[C@@H](CCCCN)C(=O)N2` [[^64Cu]Cu-NOTA-HsTX1[R14A], metal not drawn]?
time for which the 64Cu(II) complex is stable with EDTA [1]: at least 24 h; half-life ([2]; iv, i.v.): 37 min; half-life ([2]; sc, s.c.): 51 min
